In publication PMC5876331, “RING tetramerization is required for nuclear body biogenesis and PML sumoylation” (Nature Communications, 2018):
Several values for one entry are separate records, joined by “and”; a condition that tells them apart may be missing. Identical values can stand only once.

Legend:
[1] = biological target: the molecule itself; assay: SEC-MALS; pooled gel filtration peaks of PML RING1-119 re-analysed on WTC-015S5 column, 40 μl injection, 0.5 ml min^-1, DAWN HELEOS-II MALS
[2] = biological target: the molecule itself; assay: crystal structure; PML RING49-104 crystallised at 26 mg ml^-1, 500 mM ammonium sulfate, 1 M lithium sulfate, 100 mM sodium citrate, 4 °C; 1.6 Å, Zn SAD; 4 molecules per ASU
[3] = biological target: the molecule itself; assay: AUC; sedimentation velocity, 200,000g, 25 °C, 20 mM Tris, 100 mM NaCl, pH 8.0, with/without 1 mM DTT; 1 mg ml^-1 (wild type also 5 mg ml^-1); SEDFIT c(s)

Protein | stoichiometry N [1] | stoichiometry N [2] | stoichiometry N [3]
PML RING1-119 (amino acids 1-119), wild type (domain or fragment, UniProt P29590 1-119, looked up, PML, amino acids 1-119 (extended RING); theoretical molecular weight 13.1 kDa; also called extended RING; long version of PML RING; not shown: His6, N-terminal, cleaved) MEPAPARSPRPQQDPARPQEPTMPPPETPSEGRQPSPSPSPTERAPASEEEFQFLRCQQCQAEAKCPKLLPCLHTLCSGCLEASGMQCPICQAPWPLGADTPALDNVFFESLQRRLSVY | 4 and 2 | – | –
PML RING49-104 domain (amino acids 49-104), wild type (domain or fragment, UniProt P29590 49-104, looked up, PML (promyelocytic leukemia protein), RING domain, amino acids 49-104; residues 51-97 visible in the electron density map; Two Zn ions per subunit; not shown: His6, N-terminal, cleaved) EEEFQFLRCQQCQAEAKCPKLLPCLHTLCSGCLEASGMQCPICQAPWPLGADTPAL | – | 4 | 2
